According to article PMC11842775:

Target: 6xHis-tagged Mac3-V570R
Experiment: in vitro aggregation assay (turbidity, OD320 over time)
Settings: read at t = 60 min; purified 6xHis-tagged proteins; parent: est. 0.81; read off a plot

6xHis-tagged Mac3 V570R
response: 0.5 OD320
